What was measured:
[1] = target: T1, CD138 on the surface of U266 cells (CD138+ human lymphoblastic myeloma cell line) (human, UniProt P18827 23-310); test: flow cytometry on U266 cells at pH 6, MFI against antibody concentration (about 0.03-30 ug/mL)
T1 construct: whole, on cells; also called cell surface CD138; membrane CD138
T1 sequence (looked up): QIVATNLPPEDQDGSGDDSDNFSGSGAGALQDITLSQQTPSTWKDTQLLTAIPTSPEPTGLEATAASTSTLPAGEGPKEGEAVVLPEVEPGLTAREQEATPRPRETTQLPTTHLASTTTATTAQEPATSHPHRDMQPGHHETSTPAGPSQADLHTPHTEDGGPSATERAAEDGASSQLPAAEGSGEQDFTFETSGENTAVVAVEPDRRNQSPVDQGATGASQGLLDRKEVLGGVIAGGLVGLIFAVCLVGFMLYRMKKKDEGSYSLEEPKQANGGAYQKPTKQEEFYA
Procedure: (§1) Antibody binding to membrane CD138 was evaluated using the CD138+ human lymphoblastic myeloma cell line (U266) and quantified by flow cytometry. Cells were grown in RPMI1640 with 10% FBS. […] Cells were washed (1X) with same pH-matched buffer (and as throughout the experiment) followed by incubation with secondary (detection) goat anti-human Fab( Jackson Immuno Research) conjugated with Alexa Fluor-488 for 30 minutes also at either pH 6.0 or 7.4. Cells were washed once more and resuspended in matching pH buffer and evaluated by flow cytometry. Antibody cell binding was reported as geometric mean fluorescence intensity (MFI). Dose-response curves were generated using GraphPad Prism. Binding data were plotted using nonlinear regression analysis and a 4-parameter curve fit.
(§2) Binding was evaluated as described.

[2] = target: T1, CD138 on the surface of U266 cells …; test: flow cytometry on U266 cells at pH 6.0, MFI against antibody concentration (0.04-10 ug/mL shown)
Procedure: as §1

[3] = target: T2, Recombinant soluble human CD138 extracellular domain (analyte in SPR) (human, UniProt P18827 23-254); test: SPR (Carterra LSA): antibody captured by anti-human IgG, CD138 as analyte, pH 6.0, 1:1 fit; pH 6.0, SPR
T2 construct: extracellular domain; also called recombinant CD138 (the antigen)
T2 sequence (looked up): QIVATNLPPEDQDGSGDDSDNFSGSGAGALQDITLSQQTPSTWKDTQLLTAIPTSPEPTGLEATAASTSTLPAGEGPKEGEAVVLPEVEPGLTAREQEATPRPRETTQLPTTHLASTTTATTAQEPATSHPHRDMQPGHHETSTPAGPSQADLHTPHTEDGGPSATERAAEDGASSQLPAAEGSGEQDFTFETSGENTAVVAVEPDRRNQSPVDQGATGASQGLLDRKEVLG
Text: This method as described, immobilizes the target (recombinant CD138) through biotinylation-streptavidin capture. Such a method may, in principle, lead to biases in binding due to either chemical modification of the capture ligand and/or avidity effects due to immobilization of this ligand on the biosensor. Moreover, this method depends on diffusion-based principles of dissociation leading to non-equilibrium binding states. Surface plasmon resonance is an orthogonal, commonly used method for determining binding kinetics and deriving affinity values based on these parameters. In this method, antibodies were directly coupled to the sensor chip and probed with several concentrations of recombinant CD138 (the antigen) varying from 100 nM to 41 nM. This evaluation was completed under two different pH conditions, i.e., pH 6.0 and pH […].
Antibody-CD138 binding was evaluated on a Carterra LSA high throughput SPR instrument. Binding experiments were carried out using binding buffer comprising 100 mM sodium phosphate, 150 mM NaCl and 0.05% Tween-20 buffer. Buffers were adjusted to target pH of 7.4 and 6.0, by use of sodium hydroxide or HCL, respectively. All steps were also carried out independently at these respective buffer pHs. Antibodies were captured on the SPR (CMDP) chip using an anti-human IgG covalently coupled to the CMDP chip based on standard protocols, as described by the instrument manufacturer, and to create a uniform lawn on the chip surface at a target 25 nM anti-CD138 antibody concentration. Binding to CD138 was achieved by uniformly passing binding analyte with increasing concentrations of CD138 (41 nM-100 nM) for 15 minutes and allowing dissociation for 20 minutes. Analyte was flowed over the chip at a rate of 2 milliliters/minute. Raw binding data were processed using kinetics data analysis software also provided by the manufacturer (Carterra) following as 2X background subtraction that used the first six injections of buffer blanks and the internal machine reference controls. Kinetic data was analysed using a global fit and assuming a 1:1 binding interaction. Further analysis of individual binding curves (sensorgrams) with best fits were used to refine the calculation of kinetic parameters.

[4] = target: T1, CD138 on the surface of U266 cells …; test: flow cytometry on U266 cells at pH 6.5, MFI against antibody concentration (about 0.03-30 ug/mL)
[5] = target: T1, CD138 on the surface of U266 cells …; test: flow cytometry on U266 cells at pH 6.0, MFI against antibody concentration (0.01-10 ug/mL)
Procedure: as §1

[6] = target: T1, CD138 on the surface of U266 cells …; test: flow cytometry on U266 cells at pH 7, MFI against antibody concentration (about 0.03-30 ug/mL)
Procedure: as §1, §2

[7] = target: T3, Biotinylated recombinant soluble human CD138 extracellular domain (Sino Biological, Cat. 11429-H08H) (human, UniProt P18827 18-251, biotin (EZ-Link NHS-SS-PEG4 Biotin) on primary amino groups of lysines, protein:biotin 1:20); test: BLI (Octet): biotinylated CD138 (10 nM) on streptavidin tips, antibody 12.5 and 25 nM, pH 6.0, 1:1 fit
T3 construct: range 18-251; Bought reagent; The limits are printed as approximate; also called biotinylated CD138; recombinant CD138
T3 sequence (looked up): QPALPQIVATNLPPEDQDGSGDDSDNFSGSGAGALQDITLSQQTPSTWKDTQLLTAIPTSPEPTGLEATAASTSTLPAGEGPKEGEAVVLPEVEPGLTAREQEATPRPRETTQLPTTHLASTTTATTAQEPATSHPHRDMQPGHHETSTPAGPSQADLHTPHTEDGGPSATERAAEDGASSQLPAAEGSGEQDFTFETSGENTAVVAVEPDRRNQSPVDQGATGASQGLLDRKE
Procedure: Binding experiments were carried using assay buffer comprised of 100 mM Sodium Phosphate+ 150 mM NaCl + 0.02% Tween-20 and adjusted to target pH of 7.4, 6.0, 6.4, or 6 using appropriate ratios of monobasic and dibasic sodium phosphate buffer. 25 nM biotinylated CD138 was loaded onto Streptavidin capture Octet (SA) tips for 120 seconds (antigen loading step) followed by antibody binding for associated for 300 seconds (association step), and subsequently dissociation for 300 seconds (dissociation step). All steps were carried out at the respective target pH using the corresponding pH adjusted buffers.
Modifications to this protocol included lowering the loading concentration of biotinylated CD138 from 25 nM to 10 nM and varying the test antibody concentrations ranging from 25 nM down to 0.8 nM (as 2-fold dilutions). The rationale for doing so was to potentially reduce any target avidity effects while also looking at the analyte concentration dependency.
Data were analyzed for purposes of calculating approximate kinetic binding parameters and apparent binding affinities based on these rates. Data was fit assuming a 1:1 binding model.

[8] = target: T1, CD138 on the surface of U266 cells …; test: flow cytometry on U266 cells at pH 7.4, MFI against antibody concentration (about 0.03-30 ug/mL)
Procedure: as §1, §2

B1: Antibody 29-0 (antibody, V domains shown)
VH: EVQLVQSGAEVKKPGASVKVSCKASGYSFSSYYMHWVRQAPGQGLEWMGTIYPGASTTNYNQKFQGRVTMTVDTSTRTAYMELSSLRSEDTAVYYCADFVYWGQGTTVTVSS
VL: DIVMTQTPLSLSVTPGQPASISCKSSKSLLYKDGKTYLNWFLQKPGQSPQLLIYVVSTRASGVPDRFSGSGSGTDFTLKISRVEAEDVGVYYCQQLVEYPYTFGQGTKLEIK
notes: also called mAb 29-0
- EC50 (read off the curve) [1]: ~0.6 µg/mL
- EC50 (read off the curve) [2]: ~0.6 µg/mL
- Kd [3]: 28 nM
- koff [3]: 0.0042 s⁻¹
- kon [3]: 150000 M⁻¹ s⁻¹
- EC50 (read off the curve) [4]: ~0.9 µg/mL

B2: Antibody Ab43 (antibody, V domains shown)
VH: EVQLVQSGAEVKKPGASVKVSCKASGYSFSSYYMHWVRQAPGQGLEWMGTIHPSDSTTNYNQKFQGRVTMTVDTSTRTAYMELSSLRSEDTAVYYCADFVYWGQGTTVTVSS
VL: DIVMTQTPLSLSVTPGQPASISCKSSKSLLYKDGKTYLLWFLQKPGQSPQLLIYVVSTRASGVPDRFSGSGSGTDFTLKISRVEAEDVGVYYCQQLVEYPYTFGQGTKLEIK
- EC50 (read off the curve) [5]: ~0.5 µg/mL
- EC50 (read off the curve) [1]: ~0.6 µg/mL
- EC50 (read off the curve) [6]: ~0.9 µg/mL
- Kd [7]: 6.5 nM
- koff [7]: 0.0041 s⁻¹
- kon [7]: 630000 M⁻¹ s⁻¹
- EC50 (read off the curve) [4]: ~0.7 µg/mL
- EC50 (read off the curve) [8]: ~1 µg/mL

— patent US20230348614A1 (VISTERRA, published 2023)
